Source: the supplement of paper PMC10567573

B1: SLC35F2 (parent)
chain: SFMPLVIKVTSATSVNLGILTADL
B2: RIPK4 (parent)
chain: VIDLFDEQGLSALHLAAQGRHAQT

Variants of: B1
Experiment: protein stability index of a GFP-peptide fusion (GPS, HEK-293T) (PSI 1-6); higher = more stable
Conditions: c terminus: a fixed tail appended
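Further: lentivirally expressed fusions sorted by FACS into six bins by GFP to DsRed ratio, PSI derived from sequencing read proportions per bin multiplied by bin number.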

Protein stability index, by site and new letter:
F2: V 2.68 | L 2.42 | T 2.87 | M 2.47 | A 2.38 | N 2.48 | K 3 | P 2.47 | S 2.92
S14: C 3.32 | A 2.47 | L 2.15 | H 1.79 | N 3.45 | M 2.72 | W 2.61 | P 2.44 | F 2.94 | Q 1.71
L20: G 2.2 | N 1.97 | W 3.1 | Q 3.08 | I 3.65 | D 1.59 | H 3.07 | P 2.38 | T 2.55 | Y 3.69 | K 1.93 | C 2.67 | S 2.8
P4: S 1.73 | D 1.64 | C 3.66 | L 2.34 | Q 4.03 | G 2.32 | W 3.07 | R 5.37 | T 2.71 | E 3.23
S11: A 4.19 | L 1.96 | V 2.64 | N 4.93 | E 2.8 | C 2.19 | K 2.9 | F 4.62 | M 3.94 | T 2.03
L24: F 3.22 | C 3.76 | I 3.14 | Y 4.32 | R 1.89 | H 3.57 | N 3.27 | S 2.87
N16: K 3.43 | Y 3.46 | R 3.2 | W 2.82

Variants of: B2
Experiment: as above
Conditions: c terminus: a fixed tail appended

Protein stability index of substitutions, site by site:
H21: W 1.9 | M 2.56 | K 3.41 | L 2.66 | F 2.22 | N 3.06 | Y 2.47 | T 3.07 | Q 3.23 | E 3.32 | D 3.18 | C 2.89 | A 2.41 | R 2.24 | P 3.01 | V 2.72 | I 2.28 | S 2.76 | G 2.86
T24: R 3.38 | E 4 | H 2.38 | A 2.5 | S 2.51 | P 2.41 | L 2.09 | W 1.86 | C 2.57 | K 3.13 | Y 1.91 | F 1.86 | I 2.47 | D 3.76 | G 3.15 | N 2.92 | M 2.63 | Q 2.51 | V 2.69
A22: V 2.42 | T 3.03 | G 2.73 | S 2.91 | P 2.79 | M 2.4 | I 2.14 | E 3.61 | C 2.32 | D 3.03 | F 2.19 | Q 3.15 | W 1.57 | N 3.09 | H 2.87 | Y 2.23 | R 3.13 | L 2.1 | K 3.17
G19: P 2.76 | Q 3.07 | S 2.99 | W 1.99 | V 1.71 | R 2.44 | T 2.37 | Y 2.66
Q23: Y 2.06 | R 3.49 | M 1.84 | A 2.67 | S 2.6 | P 2.66 | V 2.53 | D 3.69 | F 1.76 | L 2.52 | K 3.17 | G 2.8 | C 2.59 | T 2.72 | H 2.49 | N 2.84 | E 3.48 | W 1.93 | I 2.16
R20: T 3.14 | G 2.94 | C 2.6 | N 3.02 | W 2.02 | E 3.7 | F 2.38 | Y 2.06 | D 3.82 | V 2.54 | L 2.34 | Q 3.29 | H 2.8 | K 3.53 | P 2.66 | I 2.46 | M 2.58 | A 2.66 | S 3.26
